System: MS2 coat protein
Assay: apparent KD of MS2 coat protein; designed switch direction (-1 OFF switch, 1 ON switch): -1; higher = weaker reporter binding
Summary of the method: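 The reported apparent KD is a per-design median over clusters, from curve fits of normalised cluster fluorescence. Protein titrations used SNAP-549-labelled MS2 coat protein, doubled from 0.7 or 1.5 nM to 3 µM, in Tris-HCl pH 7.5 buffer with KCl, MgCl2, BSA, DTT, tRNA and Tween-20, with no input, 200 uM small-molecule ligand, or an oligonucleotide input. The RNA switches were transcribed on Illumina chips by stalled E. coli RNA polymerase.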

[1] = Eterna round: R95, input ligand: FMN 200 uM
[2] = Eterna round: R95, input ligand: microRNA oligo, concentration not stated
[3] = Eterna round: R95, input ligand: none
[4] = input ligand: microRNA oligo, concentration not stated

| Sequence | apparent KD of MS2 coat protein [1] | apparent KD of MS2 coat protein [2] | apparent KD of MS2 coat protein [3] | apparent KD of MS2 coat protein (input ligand: FMN 200 uM) | apparent KD of MS2 coat protein (input ligand: none) | apparent KD of MS2 coat protein [4] |
| --- | --- | --- | --- | --- | --- | --- |
| ACAAGCUUAUUGCUCGGGUACAUGAGGAUCACCCAUGUUAGUGAUUAUAGAGAAUGUGUUGACGUGCGCUGCAGGUU [JR_SV3TOV1_Sub079] (puzzle: Sensor v3, turn-off variant 1) | 75.5 nM | 46 nM | 92.2 nM | – | – | – |
| ACAAGCUUUACGAUCCUCAACAUGAGGAUCACCCAUGUGCUCGUAUUGUUUAGUACUAUCACGAAAGUGAUAGUACA [Sensor, turn off variant 1 v.6] (Eterna round: R97, puzzle: Sensor, turn-off variant 1) | – | – | – | 1430 nM | 943 nM | – |
| ACAAGCUUUUAGAUUCUUAACAUGAGGAUCACCCAUGUGCUCGUCUUACCGGCCGGCGGGCCGCCGGCCGGGCUUGU (Eterna round: R97, puzzle: Sensor, turn-off variant 1) | – | – | – | 18.5 nM | 18.5 nM | – |
| ACAAGCUUUUAGAUUUUCAACAUGAGGAUCACCCAUGUUCGUCUUAUGCUAGUGCGAGUGCGGUGUACUCGUAUUAG [JL TOV1 3.81 sellena mod] (Eterna round: R97, puzzle: Sensor, turn-off variant 1) | – | – | – | 18.2 nM | 16.8 nM | – |
| ACAAGCUUUUUCAUAUCUAACAUGAGGAUCACCCAUGUUUAAGCAAUUAUGUUUGGGCUCUUUUGAGCUCGUCUUAU [JR_STOV1_Sub047] (Eterna round: R97, puzzle: Sensor, turn-off variant 1) | – | – | – | 13.8 nM | 12.3 nM | – |
| ACAAGCUUUUUCGUGGGUGACAUGAGGAUCACCCAUGUUUGCCGCGUCUUGUCGUCGUGGACCUGUGGUCCAUGACG [Small mod of -44.6, -64.9 by Sellena] (Eterna round: R97, puzzle: Sensor, turn-off variant 1) | – | – | – | 137 nM | 153 nM | – |
| ACAAGCUUUUUGCUCGUCUUGUAGAAACGUGAGAGCGAGACAUGAGGAUCACCCAUGUAAAGGCAGUAGGUGGAGAU [JR_SV3TOV2_Sub026] (puzzle: Sensor v3, turn-off variant 2) | 36.9 nM | 64.4 nM | 58.2 nM | – | – | – |
| ACAAGCUUUUUGCUCGUUUACAUGAGGAUCACCCAUGUGUCUUCACGCCCGGGCCCGGGCAAGCCCGGGCCCGGGCG [-47, -77, A 16%] (Eterna round: R97, puzzle: Sensor, turn-off variant 1) | – | – | – | 45.6 nM | 45 nM | – |
| ACAAGCUUUUUGUUCGUCUUAUACACUCCUAAUAAGACAACAUGAGGAUCACCCAUGUAACAAACAAGAACUCAUGU [Sesor Array 6 - Jieux - Sensor v3, turn-off variant 2] (puzzle: Sensor v3, turn-off variant 2) | 55.1 nM | 359 nM | 72.5 nM | – | – | – |
| ACAAGCUUUUUGUUCGUCUUAUACACUCCUAAUAAGACAACAUGAGGAUCACCCAUGUAACAAAGACGAACUCAUGU [Sesor Array 8 - Jieux - Sensor v3, turn-off variant 2] (puzzle: Sensor v3, turn-off variant 2) | 22.4 nM | 257 nM | 19.9 nM | – | – | – |
| ACAAGCUUUUUGUUCGUCUUAUACACUCCUAAUAAGACAACAUGAGGAUCACCCAUGUAAGAAAUAAGAACUCAUGU [Sesor Array 4 - Jieux - Sensor v3, turn-off variant 2] (puzzle: Sensor v3, turn-off variant 2) | 292 nM | 595 nM | 381 nM | – | – | – |
| ACACAGCGAGGAUAUACAUGAGGAUCACCCAUGUGGUGGCAGUUACGGUAGGACUAGUGUAGAAGGUGCAGUGG [EX3 #29] (Eterna round: R97, puzzle: Exclusion 3) | – | – | – | 485 nM | 800 nM | – |
| ACACCUCACGUCAGGAUAUCUAUCUCGAGUGAGGAAGAGAAGGGACAUGAGGAUCACCCAUGUAUAGAAAGAAU [Usissodi] (Eterna round: R97, puzzle: Brourd's mod of Exclusion 4) | – | – | – | 125 nM | 27.2 nM | – |
| ACAGGUUAAGGAUAUACAUGAGGAUCACCCAUGUCGAGUAUCUUGUCAUGCCGCCCAUGUAGAAGGUAACAUGG [Geale] (puzzle: Exclusion 3) | – | 14.3 nM | – | – | – | – |
| ACAGUACAUGAGGAUCACCCAUGUGAGGAUAUAGUAGUAUGGGAGACCAUACUAAAGACUAGAAGGCGCGGGCA [Exclusion 1 S1] (Eterna round: R97, puzzle: Exclusion 1) | – | – | – | 43.6 nM | 67 nM | – |
| ACAGUGUUAGGAUAUCUGAGAAUUAGUCUCGACUAGUCGAAGGAGAAGGAACAUGAGGAUCACCCAUGUAGAUC [EX4 #76] (Eterna round: R97, puzzle: Exclusion 4) | – | – | – | 295 nM | 41.6 nM | – |
| ACAUGACUGCUAGGAUAUAGAUGACAUGAGGAUCACCCAUGUUGUCCCAUGUUGAUGGAAACCGACUAGAAGGAGCAGCAUAUG [Ex NG2 #11] (Eterna round: R96, puzzle: Exclusion NG 2) | – | – | – | 47.4 nM | 35 nM | 22.9 nM |
| ACAUGAGGAUCACCCAUGUAAACAUAAUGGCUCAUGUAGAGUCAGGAUAUGCGUGGCGAACUCGCGCAGAAGGGACAAGACUGG [Deportation 23 - Jieux - Exclusion NG 3] (Eterna round: R96, puzzle: Exclusion NG 3) | – | – | – | 26.7 nM | 26.4 nM | 20.6 nM |
| ACAUGAGGAUCACCCAUGUAAGGUUGGUUUUCUCCGGCUGUUGAGGAUAUAGUCCGGUAUCCGCGCUAGAAGGUGAGGGUUGGC [Aenatbe mod 10] (Eterna round: R96, puzzle: Exclusion NG 3) | – | – | – | 73 nM | 77.2 nM | 71.2 nM |
| ACAUGAGGAUCACCCAUGUACAGGGUGUAGUUUCAUUGUUUGAAGGAUAUACUUAGUUAGUUGUUGUAGAAGGUCAUAUUUCAU [JR_ExcNG3_Sub001] (Eterna round: R96, puzzle: Exclusion NG 3) | – | – | – | 126 nM | 1040 nM | 500 nM |
| ACAUGAGGAUCACCCAUGUACAGGGUUUAGCCUCAUUGUUUGAAGGAUAUACUCAGUUAGUUGUUGUAGAAGGUCACCUUUUAU [JR_ExcNG3_Sub003] (Eterna round: R96, puzzle: Exclusion NG 3) | – | – | – | 3450 nM | 1360 nM | 1730 nM |
